Reference: patent publication US20140086829A1 (BIOREC S A, published 2014)

Biological target: T1, human GST-VEGF (human, UniProt P15692-9 27-147)
T1 construct: also called GST-VEGF humano; not shown: GST fusion partner
T1 sequence (looked up): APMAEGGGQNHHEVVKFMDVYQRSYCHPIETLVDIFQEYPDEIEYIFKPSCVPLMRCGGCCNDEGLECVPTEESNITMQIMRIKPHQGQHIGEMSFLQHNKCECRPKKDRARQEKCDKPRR
Assay: competition ELISA on coated GST-VEGF; soluble scFv 2H1 titrated; competitor phage scFv 4D8

B1: soluble scFv 2H1 antibody fragment (scFv, from another filing)
scFv: QQVQLVQSGAEVKKPGESLKISCKGSGYSFTSYWIGWVRQMPGKGLEWMGIIYPGDSDTRYSPSFQGQVTISADKSISTAYLQWSSLKASDTAMYYCARLVVRDTEIWGQGTMVTVSSAPQAKSSGSGSESKVDQAVVTQEPSLTVSPGGTVTLTCASSIGAVTSGNYPNWFQQRPGQPPRALIYSTSNKHSWTPARFSGSLLGGKAALTLSGAQPEDEAEYYCLLSYSGARPVFGGGTKLTVLGAAAGSEQKLISEEDLNSHHHHHH
Binder B1 has an IC50 of 32 µg/mL.
